These results are taken from US20110207670.

Data set [1] has as its system TM-LE15 (truncated form of TMD2 in which the EGF 6 domain is removed).
The test system of data set [2] is TMD2-I424A (TMD2 in which the isoleucine at position 424 is substituted with alanine).
Data set [3] relates to human TMD1 (soluble thrombomodulin containing the amino terminal domain, EGF domain and ST domain, without signal peptide).
In data set [4] the test system is human TMD2 (wild-type soluble human thrombomodulin truncated immediately after EGF6, without signal peptide).

Sequence of TM-LE15 (truncated form of TMD2 in which the EGF 6 domain is removed) (chain, as listed by the source): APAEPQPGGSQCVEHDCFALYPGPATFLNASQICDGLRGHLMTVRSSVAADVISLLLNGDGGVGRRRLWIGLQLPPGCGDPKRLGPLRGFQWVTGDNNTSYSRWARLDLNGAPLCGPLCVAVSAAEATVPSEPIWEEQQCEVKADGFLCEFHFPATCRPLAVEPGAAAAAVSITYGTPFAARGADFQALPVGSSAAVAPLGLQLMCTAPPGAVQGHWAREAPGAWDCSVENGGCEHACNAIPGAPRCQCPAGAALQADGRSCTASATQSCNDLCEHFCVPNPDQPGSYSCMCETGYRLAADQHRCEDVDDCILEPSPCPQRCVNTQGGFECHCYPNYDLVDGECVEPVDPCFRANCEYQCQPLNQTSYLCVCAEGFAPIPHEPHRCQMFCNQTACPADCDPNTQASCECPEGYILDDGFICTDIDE

Regarding human thrombin, the Vmax (mOD405/min) of human protein C activation was 8.3 mOD405/min in data set [1], 6.9 mOD405/min in data set [2], 43.3 mOD405/min in data set [3] and 39.1 mOD405/min in data set [4].
